Results: PMC2171815

Target: Cog3p (subunit 3 of the conserved oligomeric Golgi (COG) complex) (rat (endogenous in rat liver Golgi))
Test: co-IP

B1: GS28 (intra-Golgi v-SNARE) (natural protein)
chain: MAAGTSNYWEDLRKQARQLENELDLKLVSFSKLCTSYSHSSARDGGRDRYSSDTTPLLNGSSQDRMFETMAIEIEQLLARLTGVNDKMAEYTHSAGVPSLNAALMHTLQRHRDILQDYTHEFHKTKANFMAIRERENLMGSVRKDIESYKSGSGVNNRRTELFLKEHDHLRNSDRLIEETISIAMATKENMTSQRGMLKSIHSKMNTLANRFPAVNSLIQRINLRKRRDSLILGGVIGICTILLLLYAFH
percent of total co-precipitated: 5%
